# B1: Tyrosine-protein phosphatase non-receptor type 1 (Homo sapiens), P18031 (parent)
# chain: MEMEKEFEQIDKSGSWAAIYQDIRHEASDFPCRVAKLPKNKNRNRYRDVSPFDHSRIKLHQEDNDYINASLIKMEEAQRSYILTQGPLPNTCGHFWEMVWEQKSRGVVMLNRVMEKGSLKCAQYWPQKEEKEMIFEDTNLKLTLISEDIKSYYTVRQLELENLTTQETREILHFHYTTWPDFGVPESPASFLNFLFKVRESGSLSPEHGPVVVHCSAGIGRSGTFCLADTCLLLMDKRKDPSSVDIKKVLLEMRKFRMGLIQTADQLRFSYLAVIEGAKFIMGDSSVQDQWKELSHEDLEPPPEHIPPPPRPPKRILEPHNGKCREFFPNHQWVKEETQEDKDCPIKEEKGSPLNAAPYGIESMSQDTEVRSRVVGGSLRGAQAASPAKGEPSLPEKDEDHALSYWKPFLVNMCVATVLTAGAYLCYRFLFNSNT
# Variants of: B1
# Details: with insr_human INSR
row,Variant,effect of a mutation on the interaction
1,D181A,increasing interaction

# From IntAct's records for PubMed 16582879
